Measured values from US20250179205A1 (Hoffmann-La Roche, published 2025).
Substitutions are numbered along the chain they refer to.

B1: P1AD4574 CD40 × DP47 (4 + 1) (bispecific antibody)
heavy 1: not shown
heavy 2: not shown
light: DIQMTQSPSSLSASVGDRVTITCRSSQSLVHSNGNTFLHWYQQKPGKAPKLLIYTVSNRFSGVPSRFSGSGSGTDFTLTISSLQPEDFATYFCSQTTHVPWTFGQGTKVEIKRTVAAPSVFIFPPSDEQLKSGTASVVCLLNNFYPREAKVQWKVDNALQSGNSQESVTEQDSKDSTYSLSSTLTLSKADYEKHKVYACEVTHQGLSSPVTKSFNRGEC
notes: also called huCD40-DP47
B2: P1AE0192 CD40 × FAP (28H1) (1 + 1) Crossmab (bispecific antibody, human IgG1, kappa, L234A L235A)
heavy 1: not shown
heavy 2: EVQLVESGGGLVQPGGSLRLSCAASGYSFTGYYIHWVRQAPGKGLEWVARVIPNAGGTSYNQKFKGRFTLSVDNSKNTAYLQMNSLRAEDTAVYYCAREGIYWWGQGTLVTVSSASTKGPSVFPLAPSSKSTSGGTAALGCLVEDYFPEPVTVSWNSGALTSGVHTFPAVLQSSGLYSLSSVVTVPSSSLGTQTYICNVNHKPSNTKVDEKVEPKSCDKTHTCPPCPAPEAAGGPSVFLFPPKPKDTLMISRTPEVTCVVVDVSHEDPEVKFNWYVDGVEVHNAKTKPREEQYNSTYRVVSVLTVLHQDWLNGKEYKCKVSNKALGAPIEKTISKAKGQPREPQVCTLPPSRDELTKNQVSLSCAVKGFYPSDIAVEWESNGQPENNYKTTPPVLDSDGSFFLVSKLTVDKSRWQQGNVFSCSVMHEALHNRFTQKSLSLSPGK
light 1: B1 light with E128R, Q129K
light 2: EVQLLESGGGLVQPGGSLRLSCAASGFTFSSHAMSWVRQAPGKGLEWVSAIWASGEQYYADSVKGRFTISRDNSKNTLYLQMNSLRAEDTAVYYCAKGWLGNFDYWGQGTLVTVSSASVAAPSVFIFPPSDEQLKSGTASVVCLLNNFYPREAKVQWKVDNALQSGNSQESVTEQDSKDSTYSLSSTLTLSKADYEKHKVYACEVTHQGLSSPVTKSFNRGEC
notes: monovalent for CD40 and for FAP; also called CD40 × FAP 1 + 1; 1+1 format
B3: P1AD4455 CD40 × FAP (28H1) (4 + 2) (bispecific antibody, human IgG1, kappa, L234A L235A)
heavy: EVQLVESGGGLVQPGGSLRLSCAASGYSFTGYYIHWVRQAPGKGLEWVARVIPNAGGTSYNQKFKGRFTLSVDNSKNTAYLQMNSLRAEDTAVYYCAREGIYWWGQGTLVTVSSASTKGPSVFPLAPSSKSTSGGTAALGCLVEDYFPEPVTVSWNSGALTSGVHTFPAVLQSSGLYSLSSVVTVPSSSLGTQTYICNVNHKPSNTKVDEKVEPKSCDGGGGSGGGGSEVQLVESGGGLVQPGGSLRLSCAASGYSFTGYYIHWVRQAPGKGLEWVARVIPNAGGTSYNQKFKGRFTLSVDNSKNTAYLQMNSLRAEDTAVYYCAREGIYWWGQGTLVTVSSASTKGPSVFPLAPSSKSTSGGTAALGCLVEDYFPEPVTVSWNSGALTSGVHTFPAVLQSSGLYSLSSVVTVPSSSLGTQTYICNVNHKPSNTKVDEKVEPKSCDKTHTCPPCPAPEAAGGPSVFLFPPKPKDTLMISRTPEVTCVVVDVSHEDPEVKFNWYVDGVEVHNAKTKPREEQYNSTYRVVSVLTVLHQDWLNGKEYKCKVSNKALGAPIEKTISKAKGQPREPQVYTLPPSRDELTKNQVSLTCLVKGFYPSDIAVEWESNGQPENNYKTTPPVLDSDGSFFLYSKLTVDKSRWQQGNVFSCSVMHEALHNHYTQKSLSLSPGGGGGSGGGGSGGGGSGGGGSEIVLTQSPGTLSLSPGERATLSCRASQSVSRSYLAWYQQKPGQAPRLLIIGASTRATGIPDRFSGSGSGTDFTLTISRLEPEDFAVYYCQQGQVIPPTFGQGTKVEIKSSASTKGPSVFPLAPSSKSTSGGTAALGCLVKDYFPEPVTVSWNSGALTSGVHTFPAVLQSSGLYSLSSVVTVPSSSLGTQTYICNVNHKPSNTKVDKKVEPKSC
light 1: B1 light with E128R, Q129K
light 2: B2 light 2
notes: tetravalent for CD40, bivalent for FAP; also called CD40 × FAP 4 + 2; huCD40-28H1

Experiments:
[1] = biological target: T1, human fibroblast activation protein (huFAP) (human, UniProt Q12884 1-760); experiment: flow cytometry on NIH/3T3-huFAP clone 19 cells, PE-labelled anti-human IgG Fcgamma F(ab')2 secondary, MFI baseline corrected
T1 construct: expressed on transfected NIH/3T3-huFAP clone 19 cells; also called human FAP
Method: (§1) NIH/3T3-huFAP clone 19 and NIH/3T3-mFAP clone 26 were generated by the transfection of the mouse embryonic fibroblast NIH/3T3 cell line (ATCC CRL-1658) with the expression vector pETR4921 to express under 1.5 μg/mL Puromycin selection huFAP or mFAP, respectively.
NIH/3T3-huFAP, NIH/3T3-mFAP or NIH/3T3-wt cells were cultured with 1× Dulbecco's Modified Eagle's Medium (DMEM) (Gibco, Cat. No. 42430-025) supplemented with 10% Fetal Bovine Serum (FBS) (life technologies, Cat. No. 16140, Lot No. 1797306A). For the NIH/3T3-huFAP and NIH/3T3-mFAP cells 1.5 μg/mL Puromycin (Gibco, Cat. No. A11138-03) was added to the medium for selection of FAP-expressing cells. NIH/3T3 cells were removed from the plate by using enzyme-free Cell Dissociation Buffer (Gibco, Cat. No. 13151014). 0.3×10⁵ NIH/3T3-huFAP clone 19, NIH/3T3-mFAP clone 26 or NIH/3T3-wt were added in 200 μl of 1×DMEM 10% FBS to each well of a round-bottom 96-well plate (Greiner Bio-One, CELLSTAR®, Cat. No. 650185). Plates were centrifuged 5 minutes at 1700 rpm and supernatants were flicked off. Cells were washed once with 200 μL of 4° C. cold FACS buffer (eBioscience, Cat. No. 00-4222-26). All samples were resuspended in 50 μL/well of 4° C. cold FACS buffer containing the bispecific antigen binding molecules (primary antibody) or isotype control antibody DP47 at the indicated range of concentrations (in duplicates) and incubated for 120 minutes at 4° C. Afterwards the cells were washed three times with 200 μL 4° C. cold FACS buffer. Cells were further stained with 25 μL/well of 4° C. cold secondary antibody solution (1:50 dilution of secondary antibody) containing R-Phycoerythrin (PE) conjugated AffiniPure F(ab′)₂ Fragment Goat Anti-Human IgG, Fcγ Fragment Specific (Jackson ImmunoResearch, Cat. No. 109-116-098) and incubated for 60 minutes at 4° C. in the dark. Cells were washed with 200 μl FACS buffer and resuspended in 85 μL/well FACS-buffer containing 0.2 μg/mL DAPI (Roche, Cat. No. 10236276001) and acquired the same day using 5-laser LSR-Fortessa (BD Bioscience with DIVA software). […]

human CD40 [2] = biological target: T2, human CD40 (human, UniProt P25942 21-277); experiment: cell-based or functional assay
human CD40 [3] = biological target: T2, human CD40; experiment: flow cytometry, Daudi cells, PE anti-human Fc F(ab')2
Method: The binding to cell surface CD40 was tested using Daudi cells, a human B lymphoblast cell line with high expression levels of human CD40 (ATCC CCL-213). Daudi cells were cultured with 1× Dulbecco's Modified Eagle's Medium (DMEM) (Gibco, Cat. No. 42430-025) supplemented with 10% Fetal Bovine Serum (FBS) (life technologies, Cat. No. 16140, Lot No. 1797306A). 0.3×10⁵ Daudi cells were added in 200 μl of 1×DMEM with 10% FBS to each well of a round-bottom 96-well plate (Greiner Bio-One, CELLSTAR®, Cat. No. 650185). Plates were centrifuged 5 minutes at 1700 rpm and supernatants were flicked off. Cells were washed once with 200 μL of 4° C. cold FACS buffer (eBioscience, Cat. No. 00-4222-26). All samples were resuspended in 50 μL/well of 4° C. cold FACS buffer containing the bispecific antigen binding molecules (primary antibody) or isotype control antibody DP47 at the indicated range of concentrations (in duplicates) and incubated for 120 minutes at 4° C. Afterwards the cells were washed three times with 200 μL 4° C. cold FACS buffer. Cells were further stained with 25 μL/well of 4° C. cold secondary antibody solution (1:50 dilution of secondary antibody) containing R-Phycoerythrin (PE) conjugated AffiniPure F(ab′)₂ Fragment Goat Anti-Human IgG, Fcγ Fragment Specific (Jackson ImmunoResearch, Cat. No. 109-116-098) and incubated for 60 minutes at 4° C. in the dark. Cells were washed with 200 μl FACS buffer and resuspended in 85 μL/well FACS-buffer containing 0.2 μg/mL DAPI (Roche, Cat. No. 10236276001) and acquired the same day using a 5-laser LSR-Fortessa (BD Bioscience with DIVA software). Data analysis was performed using the FlowJo version 10 software (FlowJo LLC).

human CD40 [4] = biological target: T2, human CD40; experiment: cell-based or functional assay; remark: listed apart in the source
[5] = biological target: T3, mouse fibroblast activation protein (mFAP) (mouse, UniProt P97321 1-761); experiment: flow cytometry on NIH/3T3-mFAP cells (3T3_mFAP), PE-labelled anti-human IgG Fcgamma F(ab')2 secondary, MFI baseline corrected
T3 construct: expressed on transfected NIH/3T3-mFAP clone 26 cells; also called murine FAP; mouse FAP
Method: as §1
(§2) NIH/3T3-huFAP, NIH/3T3-mFAP or NIH/3T3-wt cells were cultured with 1× Dulbecco's Modified Eagle's Medium (DMEM) (Gibco, Cat. No. 42430-025) supplemented with 10% Fetal Bovine Serum (FBS) (life technologies, Cat. No. 16140, Lot No. 1797306A). For the NIH/3T3-huFAP and NIH/3T3-mFAP cells 1.5 μg/mL Puromycin (Gibco, Cat. No. A11138-03) was added to the medium for selection of FAP-expressing cells. NIH/3T3 cells were removed from the plate by using enzyme-free Cell Dissociation Buffer (Gibco, Cat. No. 13151014). 0.3×10⁵ NIH/3T3-huFAP clone 19, NIH/3T3-mFAP clone 26 or NIH/3T3-wt were added in 200 μl of 1×DMEM 10% FBS to each well of a round-bottom 96-well plate (Greiner Bio-One, CELLSTAR®, Cat. No. 650185). Plates were centrifuged 5 minutes at 1700 rpm and supernatants were flicked off. Cells were washed once with 200 μL of 4° C. cold FACS buffer (eBioscience, Cat. No. 00-4222-26). All samples were resuspended in 50 μL/well of 4° C. cold FACS buffer containing the bispecific antigen binding molecules (primary antibody) or isotype control antibody DP47 at the indicated range of concentrations (in duplicates) and incubated for 120 minutes at 4° C. Afterwards the cells were washed three times with 200 μL 4° C. cold FACS buffer. Cells were further stained with 25 μL/well of 4° C. cold secondary antibody solution (1:50 dilution of secondary antibody) containing R-Phycoerythrin (PE) conjugated AffiniPure F(ab′)₂ Fragment Goat Anti-Human IgG, Fcγ Fragment Specific (Jackson ImmunoResearch, Cat. No. 109-116-098) and incubated for 60 minutes at 4° C. in the dark. Cells were washed with 200 μl FACS buffer and resuspended in 85 μL/well FACS-buffer containing 0.2 μg/mL DAPI (Roche, Cat. No. 10236276001) and acquired the same day using 5-laser LSR-Fortessa (BD Bioscience with DIVA software). Data analysis was performed using the FlowJo version 10 software (FlowJo LLC).

[6] = biological target: T1, human fibroblast activation protein …; experiment: flow cytometry, NIH/3T3-huFAP clone 19 cells, PE anti-human Fc F(ab')2
Method: as §1, §2

[7] = biological target: T4, His-tagged human dimeric FAP (recombinant FAP_ECD) (human, UniProt Q12884 27-760); experiment: SPR (Biacore T200), His-tagged dimeric huFAP ECD captured by anti-His, antibody as analyte, 1:1 fit (avidity)
T4 construct: also called hu FAP ectodomain + poly-lys-tag + his6-tag
Method: The capacity of the bispecific constructs to bind human FAP was assessed by surface plasmon resonance (SPR). All SPR experiments were performed on a BIACORE® T200 (BIACORE®) at 25° C. with HBS-EP as running buffer (0.01 M HEPES pH 7.4, 0.15 M NaCl, 3 mM EDTA, 0.005% Surfactant P20, (BIACORE®).
His-tagged human dimeric FAP (recombinant FAP_ECD) was captured on a CM5 chip (GE Healthcare) immobilized with anti-His antibody (Qiagen Cat. No. 34660) by injection of 500 nM huFAP for 60 s at a flow rate of 10 uL/min, 10 nM murine FAP for 20 s at a flow rate of 20 uL/min and 10 nM cynoFAP for 20 s at a flow rate of 20 uL/min. Immobilization levels for the anti-His antibody of up to 18000 resonance units (RU) were used. Following the capture step, the bispecific antibodies as well as control molecules were immediately passed over the chip surface at a concentration ranging from 0.78-100 nM with a flow rate of […] for 280 s and a dissociation phase of 180 s. Bulk refractive index differences were corrected for by subtracting the response obtained in a reference flow cell, where no FAP was immobilized. Avidity was determined using the Langmuir 1:1 curve fitting. For bivalent binding the same 1:1 fitting was used leading to an apparent KD value.

T3 sequence (P97321 whole entry): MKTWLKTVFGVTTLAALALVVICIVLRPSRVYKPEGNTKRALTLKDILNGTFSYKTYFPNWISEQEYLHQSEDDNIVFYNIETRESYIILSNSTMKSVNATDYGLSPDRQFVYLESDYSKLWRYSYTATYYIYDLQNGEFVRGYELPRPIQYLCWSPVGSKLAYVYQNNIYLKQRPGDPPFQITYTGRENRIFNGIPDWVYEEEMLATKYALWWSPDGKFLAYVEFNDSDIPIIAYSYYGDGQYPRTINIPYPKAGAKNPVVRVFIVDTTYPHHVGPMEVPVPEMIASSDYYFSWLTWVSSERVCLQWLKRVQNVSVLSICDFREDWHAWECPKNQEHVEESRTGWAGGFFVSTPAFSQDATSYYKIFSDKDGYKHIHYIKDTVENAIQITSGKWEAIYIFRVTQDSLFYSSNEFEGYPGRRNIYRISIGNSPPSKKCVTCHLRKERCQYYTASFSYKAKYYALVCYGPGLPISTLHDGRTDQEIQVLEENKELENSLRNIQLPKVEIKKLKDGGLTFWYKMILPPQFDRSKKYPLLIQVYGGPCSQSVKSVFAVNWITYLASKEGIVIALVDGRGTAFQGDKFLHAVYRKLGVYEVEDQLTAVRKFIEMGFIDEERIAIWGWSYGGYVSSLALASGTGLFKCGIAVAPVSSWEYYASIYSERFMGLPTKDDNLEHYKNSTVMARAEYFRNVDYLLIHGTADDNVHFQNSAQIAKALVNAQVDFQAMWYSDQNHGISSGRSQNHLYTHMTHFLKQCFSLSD
T2 sequence (P25942 21-277 limits assumed): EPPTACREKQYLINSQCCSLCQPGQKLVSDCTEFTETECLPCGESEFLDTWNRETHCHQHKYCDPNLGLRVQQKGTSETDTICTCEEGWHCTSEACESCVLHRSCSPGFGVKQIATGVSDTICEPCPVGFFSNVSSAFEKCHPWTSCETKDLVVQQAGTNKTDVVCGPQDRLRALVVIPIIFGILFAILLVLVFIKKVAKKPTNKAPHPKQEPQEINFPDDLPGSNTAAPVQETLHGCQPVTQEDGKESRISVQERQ

Row | Binder | binding result [1] | EC50, activation of human Daudi cells (CD70 expression) with FAP-coated Dynabeads (human CD40 [2]) [nM] | EC50 (human CD40 [3]) [nM] | EC50, activation of HEK-Blue CD40L cells (SEAP) with murine FAP-coated Dynabeads (human CD40 [4]) [nM] | binding result [5] | EC50 [6] [nM] | Kd [7] [nM] | koff [7] [s⁻¹] | kon [7] [M⁻¹ s⁻¹] | EC50 (read off the curve) [5] [nM] | EC50 (read off the curve) [1] [nM]
1 | B1 | no binding (tested: 500 nM) | 0.166 | 0.031 | 0.421 | no binding (tested: 500 nM) | – | – | – | – | – | –
2 | B2 | – | – | – | – | – | 1.15 | 2.2 | 0.00145 | 663000 | ~1 | –
3 | B3 | – | – | – | – | – | 3.64 | – | – | – | ~4 | ~4
